The values below come from article PMC7116795.

The data set addresses RAD51 (UniProt Q06609 1-339). In words: EMSA. Background: In EMSA bound probe runs differently from free probe, usually more slowly.

Chain of RAD51 (Q06609 whole entry): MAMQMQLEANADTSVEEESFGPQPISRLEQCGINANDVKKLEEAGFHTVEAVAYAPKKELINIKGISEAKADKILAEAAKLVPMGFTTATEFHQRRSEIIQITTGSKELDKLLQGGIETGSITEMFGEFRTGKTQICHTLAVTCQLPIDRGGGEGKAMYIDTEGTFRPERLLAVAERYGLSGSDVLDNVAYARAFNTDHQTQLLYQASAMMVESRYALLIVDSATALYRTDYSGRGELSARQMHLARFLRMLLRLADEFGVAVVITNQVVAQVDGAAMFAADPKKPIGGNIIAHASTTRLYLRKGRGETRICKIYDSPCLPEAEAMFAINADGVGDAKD

B1: 41mer TERRA (ssRNA)
RNA: UUAGGGUUAGGGUUAGGGUUAGGGUUAGGGUUAGGGUUAGG
For the molecule B1, the binding signal was ~3 fold higher affinity than TelDNA (N2).
